Earlier results, collected in publication PMC9776569.

Tests used:
Asp20 [1] = target: Asp20 (UniProt position 21, DVLKADGAILV); conditions: redox state not stated in this article
Cys35 = Cys35 (UniProt position 36, EWCGPCKMIAP); conditions: reduced (free thiols at Cys-32 and Cys-35)
Nterm1 [2] = target: Nterm1 (UniProt position 2, ----MSDKIIH); conditions: redox state not stated in this article
Asp26 [3] = target: Asp26 (UniProt position 27, GAILVDFWAEW); conditions: redox state not stated in this article
Cys32 = Cys32 (UniProt position 33, FWAEWCGPCKM); conditions: reduced (free thiols at Cys-32 and Cys-35)
His6 = His6 (UniProt position 7, SDKIIHLTDDS); conditions: redox state not stated in this article
Glu73 = Glu73 (UniProt position 155, NAKKIEVEFDK)
Glu122 = Glu122 (UniProt position 204, PNNTHEQHLRK)
Glu129 = Glu129 (UniProt position 211, HLRKSEAQAKK)
Asp146 = Asp146 (UniProt position 228, SEDNADSGQ--)
Glu10 = Glu10 (UniProt position 92, KKLHKEPATLI)
His46 = His46 (UniProt position 128, TPETKHPKKGV)
Glu75 = Glu75 (UniProt position 157, KKIEVEFDKGQ)
Asp143 = Asp143 (UniProt position 225, NIWSEDNADSG)
Asp40 = Asp40 (UniProt position 122, RLLLVDTPETK)
Asp95 = Asp95 (UniProt position 177, AYIYADGKMVN)
His8 = His8 (UniProt position 90, STKKLHKEPAT)
Glu57 = Glu57 (UniProt position 139, EKYGPEASAFT)
Glu101 = Glu101 (UniProt position 183, GKMVNEALVRQ)
Glu67 = Glu67 (UniProt position 149, TKKMVENAKKI)
Glu135 = Glu135 (UniProt position 217, AQAKKEKLNIW)
Glu52 = Glu52 (UniProt position 134, PKKGVEKYGPE)
His124 = His124 (UniProt position 206, NTHEQHLRKSE)
Glu142 = Glu142 (UniProt position 224, LNIWSEDNADS)
His121 = His121 (UniProt position 203, KPNNTHEQHLR)
Glu43 = Glu43 (UniProt position 125, LVDTPETKHPK)
Glu13 = Glu13 (UniProt position 13, KTAFQEALDAA); conditions: redox state not stated in this article
Asp58 = Asp58 (UniProt position 58, IFLEVDVDDCQ); conditions: redox state not stated in this article
Asp26 [4] = target: Asp26 (UniProt position 26, KLVVVDFSATW); conditions: redox state not stated in this article
Glu70 = Glu70 (UniProt position 70, VASECEVKCMP); conditions: redox state not stated in this article
Glu47 = Glu47 (UniProt position 47, FHSLSEKYSNV); conditions: redox state not stated in this article
Glu68 = Glu68 (UniProt position 68, QDVASECEVKC); conditions: redox state not stated in this article
Glu103 = Glu103 (UniProt position 103, EATINELV---); conditions: redox state not stated in this article
Asp60 = Asp60 (UniProt position 60, LEVDVDDCQDV); conditions: redox state not stated in this article
Glu95 = Glu95 (UniProt position 95, SGANKEKLEAT); conditions: redox state not stated in this article
Asp20 [5] = target: Asp20 (UniProt position 20, LDAAGDKLVVV); conditions: redox state not stated in this article
Glu56 = Glu56 (UniProt position 56, NVIFLEVDVDD); conditions: redox state not stated in this article
Glu6 = Glu6 (UniProt position 6, MVKQIESKTAF); conditions: redox state not stated in this article
Glu98 = Glu98 (UniProt position 98, NKEKLEATINE); conditions: redox state not stated in this article
Asp16 = Asp16 (UniProt position 16, FQEALDAAGDK); conditions: redox state not stated in this article
Asp64 = Asp64 (UniProt position 64, VDDCQDVASEC); conditions: redox state not stated in this article
Asp61 = Asp61 (UniProt position 61, EVDVDDCQDVA); conditions: redox state not stated in this article
Glu88 = Glu88 (UniProt position 88, GQKVGEFSGAN); conditions: redox state not stated in this article
Tyr23 = Tyr23 (UniProt position 41, DNYRGYSLGNW)
Cterm129 = Cterm129 (UniProt position 147, IRGCRL-----)
His15 = His15 (UniProt position 33, AAMKRHGLDNY)
Asp66 = Asp66 (UniProt position 84, RWWCNDGRTPG)
Asp18 = Asp18 (UniProt position 36, KRHGLDNYRGY)
Lys13 = Lys13 (UniProt position 31, LAAAMKRHGLD)
Tyr20 = Tyr20 (UniProt position 38, HGLDNYRGYSL)
Lys33 = Lys33 (UniProt position 51, WVCAAKFESNF)
Lys1 = Lys1 (UniProt position 19, LAALGKVFGRC)
Asp48 = Asp48 (UniProt position 66, TNRNTDGSTDY)
Asp101 = Asp101 (UniProt position 119, KKIVSDGNGMN)
Glu7 = Glu7 (UniProt position 25, VFGRCELAAAM)
Lys116 = Lys116 (UniProt position 134, WRNRCKGTDVQ)
Asp87 = Asp87 (UniProt position 105, ALLSSDITASV)
Asp52 = Asp52 (UniProt position 70, TDGSTDYGILQ)
Nterm1 [6] = target: Nterm1 (UniProt position 19, LAALGKVFGRC)
Asp119 = Asp119 (UniProt position 137, RCKGTDVQAWI)
Lys97 = Lys97 (UniProt position 115, VNCAKKIVSDG)
Tyr53 = Tyr53 (UniProt position 71, DGSTDYGILQI)
Lys96 = Lys96 (UniProt position 114, SVNCAKKIVSD)
Glu35 = Glu35 (UniProt position 53, CAAKFESNFNT)

## Escherichia coli thioredoxin 1 (EcTrx) (Escherichia coli)
Asp20 [1]
  pKa: 3.80
Cys35
  pKa: 9.90
Nterm1 [2]
  pKa: 7.40
Asp26 [3]
  pKa: 7.50
Cys32
  pKa: 7.10
His6
  pKa: 6.20

## Staphylococcal nuclease (SNase) (Staphylococcus aureus)
Glu73
  pKa: 3.31
Glu122
  pKa: 3.89
Glu129
  pKa: 3.75
Asp146
  pKa: 3.86
Glu10
  pKa: 2.82
His46
  pKa: 5.86
Glu75
  pKa: 3.26
Asp143
  pKa: 3.80
Asp40
  pKa: 3.87
Asp95
  pKa: 2.16
His8
  pKa: 6.52
Glu57
  pKa: 3.49
Glu101
  pKa: 3.81
Glu67
  pKa: 3.76
Glu135
  pKa: 3.76
Glu52
  pKa: 3.93
His124
  pKa: 5.73
Glu142
  pKa: 4.49
His121
  pKa: 5.30
Glu43
  pKa: 4.32

## Human thioredoxin (hTrx) (Homo sapiens)
Glu13
  pKa: 4.40
Asp58
  pKa: 2.80
Asp26 [4]
  pKa: 9.90
Glu70
  pKa: 4.60
Glu47
  pKa: 4.10
Glu68
  pKa: 4.90
Glu103
  pKa: 4.40
Asp60
  pKa: 4.20
Glu95
  pKa: 4.10
Asp20 [5]
  pKa: 3.80
Glu56
  pKa: 3.10
Glu6
  pKa: 4.80
Glu98
  pKa: 3.90
Asp16
  pKa: 4.00
Asp64
  pKa: 3.20
Asp61
  pKa: 5.30
Glu88
  pKa: 3.70

## Hen egg-white lysozyme (HEWL) (Gallus gallus)
Tyr23
  pKa: 9.80
Cterm129
  pKa: 2.75
His15
  pKa: 5.36
Asp66
  pKa: 0.90
Asp18
  pKa: 2.66
Lys13
  pKa: 10.60
Tyr20
  pKa: 10.30
Lys33
  pKa: 10.60
Lys1
  pKa: 10.90
Asp48
  pKa: 1.60
Asp101
  pKa: 4.09
Glu7
  pKa: 2.85
Lys116
  pKa: 10.40
Asp87
  pKa: 2.07
Asp52
  pKa: 3.68
Nterm1 [6]
  pKa: 7.90
Asp119
  pKa: 3.20
Lys97
  pKa: 10.30
Tyr53
  pKa: 12.10
Lys96
  pKa: 10.80
Glu35
  pKa: 6.20
